Laboratory results taken from the nanobody polyreactivity screen of Harvey et al. (2022).

Experiment: yeast display, Sf9 membrane polyspecificity reagent, FACS + sequencing; frameworks hold sequencing errors
Summary of the method: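 Sorting gates, low and high (top ~1%), were placed on anti-HA fluorescence to track expression and on streptavidin fluorescence to track reagent binding. A clone's polyreactivity label is taken from the gate it came out of. The reagent was 10% biotinylated, detergent-solubilized Sf9 membrane, applied for 1 hour at 4 °C to galactose-induced yeast display cells.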
With “QVQLVESGGGLVQAGGSLRLRCAASGSTFFRYAMGWYRPAPGKERELLAAITSGGITNYADSVKGRFTISRDNAKNTVYLQMHSLKPEDTAVYYCAKRRTYPGKGRFNYWGQGTQVTVSS” the “polyreactivity (PSR sort gate)” value was “low polyreactivity”. In the case of “QVQLVESGGGLVQAGGSLRLSCAASGRIFRTKAMGWYRLAPGKERELVAAITFSGGGTYYADSVKGRFTISRDNAKNTVYLQMNSLKPEDTAVYYCATDWYYEYYYWGQGTQVTVSS”, the “polyreactivity (PSR sort gate)” value is reported as “low polyreactivity”. For “QVQLVESGGGLVQAGGSLRLSCDASGITFWGYVMGWYRQAPGKERELVAAISSSGGRTYYADSVKGRFTISLDNAKNTVYLQMNSLKPEDTAVYYCAARFLYANRYSVDYDYCGQGTQVTVSS”, the “polyreactivity (PSR sort gate)” value was “high polyreactivity”. For “QVQLVQSGGGLVQAGGSLRLSCAASGSTFTPNDMGWYRQAPGKERELVAAIDWSGGSTYYADSVKGRFTISRDNAKNTVYLQMNSLKPEDTAVYYYNADSSKFYSHGEYEYWGQGTQVTVSS”, the “polyreactivity (PSR sort gate)” value was “low polyreactivity”. For “QVHLVESGGGLVQAGGSLRLSCAASGRIFTYYAMGWYRQAPGKERELFAGISRSGTSSYYADSVKGSFTISRDNAKNTVYLQMNSLKPEDTAVYYCAADVFRDDVWLDYWGQGTQVTVSS”, the “polyreactivity (PSR sort gate)” value was “low polyreactivity”. In the case of “QVQLVESGGGLVQAGGSLRLSCAASGSTFAQDALGWYRQAPGKERELVATISASGGTTYYADSVKGRFSISRDNAKNPVYLQMNSLKPEDTAVYYCAKRRVWWPAHRSYLYASEFGYWGQGTQVTVSS”, the “polyreactivity (PSR sort gate)” value is reported as “low polyreactivity”. With “QVQLVESGGGLVQAGGSLRLSCAASGSNFVVYAMGWYRQAPGKERELVAAITGSGGRTYYADSVKGRFTISRDNAKNTVYLQMNSLKPEDTAVYYCATDSRGGIFDYWGQGTQVTVSS” the “polyreactivity (PSR sort gate)” value was “low polyreactivity”. With “QVQLVESGGGLVQAGGSLRLSCAASGFIFYYNTMGWYRQAPGKERELVAAINSGGSTYYADSVKGRFTISRDNAKNTVYLQMNSLKPEDTAVYYCAKRYAVSSRYYYWGQGTQVTVSS” the “polyreactivity (PSR sort gate)” value was “high polyreactivity”. In the case of “QVQLVESGGGLVQAGGSLRLSCAASGSIFKYYAMGWYRQAPGKERELVAAISSGGITNYADSVKGRFTISRDNAKNTVYLQMNSLKPEDTAVYYCAARDYVRFGLYDYDYWGQGTQVTVSS”, the “polyreactivity (PSR sort gate)” value is reported as “low polyreactivity”. For “QVQLEESGGGLVQAGGSLRLSCAASGLTFSRYAMGSYRQATGKERELVAAISIRGGNTYYADSVKGRFTISRDNAKNTVYLQMNSLKPEDTAVYYCNAVVYHYTLDHEYDYWGQGTQVTVSS”, the “polyreactivity (PSR sort gate)” value was “high polyreactivity”. With “QDQLVESRGGIVQAGGRLRLSCAASGSRFGGYGMGWYRQAPWKEREFVAVITKRGGSTYYADSVKGRFTISRDNAYNTVYLQMNSLKPEDTAVDYCNKVGYYASVLCYDYWGQGTQVTVSS” the “polyreactivity (PSR sort gate)” value was “high polyreactivity”. For “QVQLVDSGGGIVQAGGSLRLSCAASGSTFYSYAMGWYTQAPGKERELVAAINRDGVSTYYSDSVKGRFTISRYNAKNTVYLLMNSLKPEDTAVYYCNARHQTLRSYRYDYWGQGTQVSVSS”, the “polyreactivity (PSR sort gate)” value was “low polyreactivity”. With “QVQLVESGGGLVQAGGSLRLSCAASGSIISAYVMGWYRQAPGKERELVAAITRSGGSTYYADSVKGRFTISRDNAKNTVYLQMNSLTPEDTAVYYCAAKSIIRPYAPRRDDMDYWGQGTQVTVSS” the “polyreactivity (PSR sort gate)” value was “low polyreactivity”. For “QVQLVESGGRLVQAGASLRLSCAASGRILYWNTMGWYRQAPGKERELVASITQNVGSTYYADSVKGRFTISRDNAKNTVYLQMISMIPEDTAVYYCAAKRLSWHRYGYWGQGTQVTVSS”, the “polyreactivity (PSR sort gate)” value was “low polyreactivity”. In the case of “QVQLVESGGGLVQAGVSLRLSCAASGNIFGVYTMGWYRQAPGQEREFVAAISDGGSTYYADSVKGRFTISRDNAKNTVYLQMIRLKPEDTAVYYCAALIYGPDRVVDEFVYWGQGTQVTVSS”, the “polyreactivity (PSR sort gate)” value is reported as “low polyreactivity”. For “QVQLVESGGGLVQAGGSLRLSCAASGGTFEYYAMGWDRQAPGKESELVAGITGGGVSTYYADSVKGRFTISRDNAKNPVYLQKNSLKPEDTAVYYSAAAYYQDNFWWYYYWGQGTQVNVSS”, the “polyreactivity (PSR sort gate)” value was “high polyreactivity”. With “QVQLVESGGGLVQAGGILRLSCAASGSIFIYYAMVWYRQAPGKERELVAAISSSGGRTYYADSVKGRFTISRDNAKNTVYLQMNSLTPEDTAVYYCNAVGRRWYRDPARYNEYNYWGQGTQVTVSS” the “polyreactivity (PSR sort gate)” value was “high polyreactivity”.
